Broadly, the Kd is the concentration at which binding is half-saturated. The term EC50 denotes the midpoint of the concentration-response curve.

Drawing on US20200399369A1 (Sanofi, published 2020), this text covers Kd and EC50 for one molecule.

The target in assay [1] is T1, human CD38 (human, UniProt P28907 43-300, limits assumed).
T1 construct: also called hCD38; huCD38
As to the kind of experiment: SPR. On the technique in general: SPR reads the build-up and loss of mass on a sensor chip optically.

The target of assay [2] is T2, cynomolgus monkey CD38 (cynomolgus monkey, UniProt Q5VAN0 44-301, limits assumed).
T2 construct: also called Cyno CD38; cynoCD38
Kind of assay: SPR.

Assay [3] has as its target T1, human CD38. As to the kind of experiment: FACS.
Assay [4] has as its target T2, cynomolgus monkey CD38. Kind of assay: FACS. (In general: A flow cytometer gives signals particle by particle.)
The target of assay [5] is T1, human CD38. Kind of assay: ELISA.
The target of assay [6] is T2, cynomolgus monkey CD38. Kind of assay: ELISA. (In general: In an ELISA, binding on a coated surface is turned into a signal by an enzyme label.)

B1: AntiCD38_hhy_1195 (antibody, V domains shown)
VH: QVQLVESGGGVVQPGRSLRLSCAASGFTFSSYGMYWVRQAPGKGLEWVAVIWYDGSNKYYADSVKGRFTISRDNSKNTLYLQMNSLRAEDTAVYHCARDPGLRYFDGGMDVWGQGTTVTVSS
VL: DIQLTQSPSFLSASVGDRVTITCRASQGISSYLAWYQQKPGKAPKLLIFAASTLHSGVPSRFSGSGSGTEFTLTISSLQPEDFATYYCQQLNSFPYTFGQGTKLEIK
On to B1, for which the Kd in assay [1] came to 40 nM; in assay [2], 26 nM. The 50% effective concentration (EC50) turned out to be 38 nM in assay [3], 15 nM in assay [4], 1.4 nM in assay [5] and 0.86 nM in assay [6].
